This is an account of results in patent US5935927A, “Compositions and methods for stimulating amyloid removal in amyloidogenic diseases using advanced glycosylation endproducts” (The Picower Institute For Medical Research, priority 1996, dated 1999).

Read-outs that look alike come from different tables or passages of the source.

In one data set the target is T1, soluble βAP (Homo sapiens, UniProt P05067).
T1 construct: Co-incubation of 400 μM βAP 1-28 in 0.1M sodium acetate, pH 7.0, with 100 mM glucose; purchased Bachem (Torrance, Calif.); host or cells: chemical synthesis
The experiment in a line: Thioflavin-T fluorescence assay of βAP aggregation and seeding. The class given is biochemical. The settings on record: for effect on fluorescent aggregate formation of βAP: 400 μM βAP 1-28, 0.1M sodium acetate pH 7.0, 100 mM glucose, 0.05M aminoguanidine, FIG. 4; for spontaneous formation of Thioflavin-T fluorescent aggregates: FIG. 1. The source says:
Aggregation and Seeding Reactions. Synthetic, HPLC-purified peptides representing the first 28 (βAP 1-28) and the first 40 amino acids (βAP 1-40) of the 42 amino acid βAP were obtained from Bachem (Torrance, Calif.). Aggregation of soluble βAP 1-28 or βAP 1-40 at different concentrations was initiated by addition of 0.1M sodium acetate (NaOAc) at the indicated pH (between 4.7 and 7.5) and continued for the indicated times. Quantitative aggregate formation with sub-millimolar βAP concentrations was detected using the procedure of LeVine (1992, Protein Science 2:404-410). Briefly, fluorescence of aggregates added to 10 μM Thioflavin-T (Aldrich)/50 mM potassium phosphate buffer, pH 6.0, was measured upon excitation at 450±5 nm and detection of emission at 482±10 mn on a Perkin Elmer LS-50B spectrofluorimeter. Where indicated, small amounts of pre-formed aggregates or "nucleation seeds" were added to the soluble βAP and aggregation initiated with 0.1M sodium acetate.
Generations of "Seeds". […] After incubation, protein concentrations of seed preparations were measured and adjusted with buffer to 150 μM final concentration. […] Lysines at positions 16 and 28 of βAP contain primary amino groups which may react with reducing sugars to generate advanced glycosylation endproducts of AGEs. Indicated amounts of glucose and/or aminoguanidine, a potent inhibitor of advanced glycation and crosslink formation (Brownlee et al., 1986, Science 232:1629-1632), were also added to solutions of βAP before sodium acetate in some experiments.

In data set [1] the test system is insulin-producing β-cells of the adult pancreas. As to conditions: rat cells; Lorenzo et al. 1994; cited from earlier work.
The test system is the same in data set [2]. The settings on record: human cells; Lorenzo et al. 1994; cited from earlier work.

T1 sequence (P05067 672-699): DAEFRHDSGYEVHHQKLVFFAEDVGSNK

In the case of `N=C(N)NN` [aminoguanidine], the “effect on fluorescent aggregate formation of βAP” value at soluble βAP was “can inhibit the AGE-enhanced aggregation of βAP”.
`O=C[C@H](O)[C@@H](O)[C@H](O)[C@H](O)CO` [glucose]: the “effect on fluorescent aggregate formation of βAP” value at soluble βAP is “stimulates fluorescent aggregate formation”.
In the case of “human amylin fibrils: fibrils of the 37 amino acid islet amyloid polypeptide (IAPP), amylin (KCNTATCATQRLANFLVHSSNNFGAILSSTNVGSNTY; Islet amyloid polypeptide fibrils; UniProt P10997 34-70, looked up)”, the “toxicity to β-cells” value in data set [1] and in data set [2] was “toxic” throughout.
Regarding “βAP 1-28: synthetic peptide representing the first 28 amino acids of the 42 amino acid βAP”, the “spontaneous formation of Thioflavin-T fluorescent aggregates” value with soluble βAP (600 μM, pH 7.2) was “spontaneously and rapidly formed Thioflavin-T fluorescent aggregates within minutes”; with soluble βAP (concentrations below 300 μM), “aggregated very slowly with a considerable lag before fluorescent aggregates were measurable”.
